Test results published in patent US20260226524A1, “GLUTAMINE SYNTHETASE MARKER FOR RECOMBINANT EXPRESSION” (priority 2023, published 2026).

Experiments:
[1] = tested on: Chinese Hamster Ovary CHO-K1 (CCL-61) host cell; experiment: Flow cytometry analysis of GS expression via UnaG fluorescence in electroporated cell pools; format: cell-based; settings: about 3 weeks post-seeding, MSX selection, FIGS. 3A-3B
Description: Vector design: Nearly all selectable marker currently used in GS system is Cricetulus griseus-derived GS. To investigate whether the GS from other species further improve titer or screening efficiency, a set of vectors were designed as described below: • a sequence coding for an eel green fluorescent protein UnaG, a 2A self-cleaving peptide and a glutamine synthetase, placed under the control of the SV40 promoter; • two expression cassettes, in which the sequences coding for the heavy chain and light chain of a human anti-RANKL antibody denosumab were placed under the control of CMV promoters, respectively; • a sequence coding for a protein conferring resistance to ampicillin, for use in prokaryotic cells; and • a prokaryotic origin of replication.
(§1) The 2A self-cleaving peptide allowed relatively equal molar expression of the two products separated by it, namely, the green fluorescent protein UnaG and glutamine synthetase. After random integration, GS expression in each individual cell was evaluated by monitoring UnaG level using flow cytometry. Denosumab here served as the secreted reporter for assessing titers using selectable glutamine synthetase markers from different species. The vectors differed from one another by the GS-coding sequences, which were derived from Chinese hamster (Cricetulus griseus), koala (Phascolarctos cinerecus), vesper bat (Pipistrellus kuhlii), gerbil (Meriones unguiculatus), ostrich (Struthio camelus australis), junglefowl (Gallus gallus), pigeon (Columbia Livia), and snake (Pseudonaja textilis), respectively.
(§2) Electroporation and cell screening: Expression vectors described above were first linearized by the restriction endonuclease Pvul (there was one Pvul site in the ampicillin resistant gene). Then linearized vectors were introduced into the host cell using cell electroporator (Lonza Nuleofector 2b). The host cell was derived from ATCC wild-type Chinese Hamster Ovary CHO-K1 (CCL-61) and adapted to serum-free suspension culture at Shanghai ZhenGe Biotech Co. Ltd. 24 hours post electroporation, cell pools were plated into culture flasks or 96-well plates (approximately 1, 200 cells/well, 300 wells per condition) in the absence of or presence of MSX (50 μM).
Flow cytometry analysis of GS expression: About 3 weeks post-seeding, cell pools electroporated with GS gene from indicated species were analyzed using Attune NxT flow cytometer (FIGS. 3A-3C). […] As shown, when the GS from Chinese Hamster was used as the selectable marker, most tested cells (>98%) remained UnaG “negative” in the presence of the MSX, indicating low selection efficiency.

[2] = tested on: Chinese Hamster Ovary CHO-K1 (CCL-61) host cell; experiment: Bio-Layer Interferometry (Octet) analysis of denosumab expression in supernatants of cell pools selected with GS markers; format: cell-based; settings: 50 μM MSX; for pools expressed detectable denosumab (>0.125 ug/mL): Day 20, among 300 seeded pools in 96-well plates, GS used as selectable marker; for median expression value of denosumab of positive pools: Day 20, positive pools (>0.125 ug/mL), Octet ProA biosensor
Description: Vector design: Nearly all selectable marker currently used in GS system is Cricetulus griseus-derived GS.
as §1, with “After” for “The 2A self-cleaving peptide allowed relatively equal molar expression of the two products separated by it, namely, the green fluorescent protein UnaG and glutamine synthetase. After”
as §2

B1: snake GS: Pseudonaja textilis glutamine synthetase, SEQ ID NO: 3 (nucleotide SEQ ID NO: 12), used as selectable marker (protein, listed as Pseudonaja textilis)
chain: MATSASSHLSKTIKQMYMKLPQGDKVQAMYIWIDGTGEFLRCKTRTLEREPKNVEDLPEWNFDGSSTFQSEGSNSDMYLVPSAMFRDPFRKDPNKLVLCEVLKYNRKPAETNLRSTCKRIMDMVSNQNPWFGMEQEYTLLGTDGHPFGWPSNGFPGPQGPYYCGVGADKAYGRDVVEAHYRACLYAGVNIGGTNAEVMPAQWEFQVGPCEGVDMGDHLWIARFILHRVCEDFGVIVSFDPKPIPGNWNGAGCHTNFSTKNMREEGGLKQIEDAIEKLGKRHQYHIRAYDPKGGLDNARRLTGFHETSNIHEFSAGVANRGASIRIPRNVGQVKKGYFEDRRPSANCDPYAVTEALVRTCLLNETGDEPFEYKN
modifications: Snake GS
UnaG expression of cells (selection efficiency) [1]: significant amounts of cells showed positive UnaG expression
pools expressed detectable denosumab (>0.125 ug/mL) [2]: 38.0%
median expression value of denosumab of positive pools [2]: 1.75 µg/mL

B2: gerbil GS: Meriones unguiculatus glutamine synthetase, SEQ ID NO: 7 (nucleotide SEQ ID NO: 16), used as selectable marker (protein, listed as Meriones unguiculatus)
chain: MATSASSQLNKGIKQTYLALPQGEKVQAMYIWVDGTGEGLRCKTRTLDCEPKSVEELPEWNFDGSSTFQSEGSNSDMYLTPVAMFRDPFRKEPNKLVFCEVFKYNRKPAETNLRHSCKRIMEMVSNQRPWFGMEQEYTLMGTDGHPFGWPSNGFPGPQGPYYCGVGADKAYGRDIVEAHYRACLYAGVKIAGTNAEVMPAQWEFQIGPCEGVRMGDHLWVARFILHRVCEDFGVIATFDPKPIPGNWNGAGCHTNFSTKAMREENGLKFIEEAIEKLSKRHQYHIRAYDPKGGLDNARRLTGFHETSNINDFSAGVANRSASIRIPRTVGQEKKGYLEDRRPSANCDPYAVTEALVRTCLLNETGDEPFQYKN
modifications: Gerbil GS
UnaG expression of cells (selection efficiency) [1]: significant amounts of cells showed positive UnaG expression
pools expressed detectable denosumab (>0.125 ug/mL) [2]: 63.6%
median expression value of denosumab of positive pools [2]: 2.67 µg/mL

B3: junglefowl GS: Gallus gallus glutamine synthetase, SEQ ID NO: 6 (nucleotide SEQ ID NO: 15), used as selectable marker (protein, listed as Gallus gallus)
chain: MLRSLQCLLAYRVGSLPLRSWGHRLATTAHARTALASSAAMATSASSHLSKAIKHMYMKLPQGEKVQAMYIWIDGTGEHLRCKTRTLDHEPKSLEDLPEWNFDGSSTFQAEGSNSDMYLRPAAMFRDPFRKDPNKLVLCEVFKYNRQSADTNLRHTCRRIMDMVSNQHPWFGMEQEYTLLGTDGHPFGWPSNGFPGPQGPYYCGVGADKAYGRDIVEAHYRACLYAGVKIGGTNAEVMPAQWEFQVGPCEGIEMGDHLWIARFILHRVCEDFGVIVSFDPKPIPGNWNGAGCHTNFSTKNMREDGGLKHIEEAIEKLSKRHQYHIRAYDPKGGLDNARRLTGFHETSSIHEFSAGVANRGASIRIPRNVGHEKKGYFEDRRPSANCDPYAVTEALVRTCLLNETGDEPFEYKN
modifications: Junglefowl GS
UnaG expression of cells (selection efficiency) [1]: significant amounts of cells showed positive UnaG expression
pools expressed detectable denosumab (>0.125 ug/mL) [2]: 73.6%
median expression value of denosumab of positive pools [2]: 2.51 µg/mL

B4: vesper bat GS: Pipistrellus kuhlii glutamine synthetase, SEQ ID NO: 8 (nucleotide SEQ ID NO: 17), used as selectable marker (protein, listed as Pipistrellus kuhlii)
chain: MSTSASSQLNKGIKQMYMSLPQGDKVLAMYIWIDGTGEGLRCKTRTLDSEPKSIDELPEWNFDGSSTMQSEGSNSDMYLIPVAMFRDPFRKDPNKLIFCEVFKYNHKPAETNLRYTCKRIMDMVSNQHPWFGMEQEYTLMGTDGHPFGWPSNGFPGPQGPYYCGVGADRAYGRDIVEAHYRACLYAGIKIGGTNAEVMPAQWEFQIGPCEGIEMGDHLWVARFILHRVCEDFGVIATFDPKPIPGNWNGAGCHTNFSTKAMREENGLKYIEESIERLSKRHQYHIRAYDPKGGQDNARRLTGFHETSNINDFSAGVANRSASIRIPRAVGQEKKGYFEDRRPSANCDPFAVTEALIRTCLLNETGDEPFQYKN
modifications: Vesper bat GS
UnaG expression of cells (selection efficiency) [1]: significant amounts of cells showed positive UnaG expression
pools expressed detectable denosumab (>0.125 ug/mL) [2]: 94.0%
median expression value of denosumab of positive pools [2]: 3.39 µg/mL

B5: pigeon GS: Columbia Livia glutamine synthetase, SEQ ID NO: 5 (nucleotide SEQ ID NO: 14), used as selectable marker (protein, listed as Columbia livia)
chain: MALLRSVQCLLTYRASSYRLPALGGFVNLLQHSGGDRSATAACTRNPLVRSAAMATSASSHLSKAIKHMYMKLPQGDKVQAMYIWIDGTGEHLRCKTRTLDHEPKSLEDLPEWNFDGSSTFQSEGSNSDMYLRPAAMFRDPFRKDPNKLVLCEVFKYNRQSAETNLRHTCRRIMDMVSNQHPWFGMEQEYTLLGTDGHPFGWPSNGFPGPQGPYYCGVGADKAYGRDIVEAHYRACLYAGVKIGGTNAEVMPAQWEFQVGPCEGIEMGDHLWIARFILHRVCEDFGVIVSFDPKPIPGNWNGAGCHTNFSTKEMREDGGLKHIEEAIEKLSKRHQYHIRAYDPKGGLDNARRLTGFHETSNIHEFSAGVANRGASIRIPRSVGHEKRGYFEDRRPSANCDPYAVTEALVRTCLLNETGDEPFEYKN
modifications: pigeon GS
UnaG expression of cells (selection efficiency) [1]: significant amounts of cells showed positive UnaG expression
pools expressed detectable denosumab (>0.125 ug/mL) [2]: 52.0%
median expression value of denosumab of positive pools [2]: 2.27 µg/mL
